{"source": "paper PMC4014319", "about": "“Structure of catabolite activator protein with cobalt(II) and sulfate” (Acta Crystallographica. Section F, Structural Biology …, 2014)", "target": "the molecule itself", "assay": "crystal structure; hanging-drop vapor diffusion, 20°C, 0.01 M CoCl2.6H2O, 0.1 M MES pH 6.5, 2.5 M ammonium sulfate; sample 0.1 mM CAP dimer, 0.05 mM DNA duplex, 0.4 mM cyclic AMP (no DNA in the crystal); space group P2(1)2(1)2, one dimer in the asymmetric unit, 1.97 Å"}
{"protein": "catabolite activator protein (CAP) (natural protein, Escherichia coli, UniProt P0ACJ8 1-210, looked up, crystallised with cobalt(II) and sulfate; also called cAMP–CAP) MVLGKPQTDPTLEWFLSHCHIHKYPSKSTLIHQGEKAETLYYIVKGSVAVLIKDEEGKEMILSYLNQGDFIGELGLFEEGQERSAWVRAKTACEVAEISYKKFRQLIQVNPDILMRLSAQMARRLQVTSEKVGNLAFLDVTGRIAQTLLNLAKQPDAMTHPDGMQIKITRQEIGQIVGCSRETVGRILKMLEDQNLISAHGKTIVVYGTR", "values": [{"measurement": "binding result", "result": "binds"}]}
